According to US20250290928A1, “METHOD, KIT AND DEVICE FOR DETECTING EXTRACELLULAR VESICLES” (priority 2022, published 2025):
Several values for one entry are separate records, joined by “and”; a condition that tells them apart may be missing. Identical values can stand only once. *: point of attachment. 5FAM = O=C1OC2(c3ccc(O)cc3Oc3cc(O)ccc32)c2ccc(C(=O)*)cc21; TQ2 = quencher

Assays:
Format in all cases: biochemical
[1] = molecular target: T1, MMP14 in the MDA-MB-231-derived extracellular vesicles (Homo sapiens, UniProt P50281); test: Digital detection through MMP14 activity of MDA-MB-231-derived extracellular vesicles captured on anti-CD9/CD63/CD81 antibody-immobilized particles; conditions: for Expected value λ / Number of positives / Positive ratio: 5 h; for Expected value λ (MMP14) / Number of positives (MMP14): Example 33, 30° C., 4 h
T1 construct: in terms of intact MMP14 with a molecular weight of 70 kDa
Experimental: (§1) The concentration of the solution is 10 μg/mL.
For detection of MMP14 activity, 1 mM Custom #2 was diluted with the buffer (4) to prepare a MMP14 detection solution containing 10 μM Custom #2.
The number of the particles was increased 4-fold, and a reaction was allowed to proceed. However, the number and concentration of the particles used to fill the wells are finally the same as those in other Examples.
The concentration of the solution is 10 μg/mL. The solution was subjected to 3-fold serial dilution to prepare standard samples with seven concentrations.
For detection of MMP14 activity, 1 mM Custom #2 and a 100 µM resorufin β-D-galactopyranoside solution were diluted with the buffer (4) to prepare a MMP14 and CD9/CD63/CD81 cocktail detection solution (1) containing 10 μM Custom #2 and 5 μM resorufin β-D-galactopyranoside. In addition, the solution was diluted 2-fold with the buffer (4) to prepare a detection solution (2). Nonfluorescent resorufin β-D-galactopyranoside is degraded by β-galactosidase to produce fluorescent resorufin. In this case, the maximum wavelengths of excitation and fluorescence of resorufin are 570 nm and 585 nm, respectively.
In addition, an antibody-immobilized particle solution was prepared and stored at 4° C. until use, in the same manner as in Example 28 except that Magnosphere MS300/Carboxyl (manufactured by JSR Corporation) (hereinafter abbreviated as “MS300C”) was used as magnetic particles.
For detection of MMP14 activity, 1 mM Custom #2 was diluted with the buffer (4) to prepare a MMP14 detection solution containing 5 μM Custom #2. In addition, 1 mM Custom #2T was diluted with the buffer (4) to prepare a MMP14 detection solution containing 2.5 μM Custom #2T.
An antibody-immobilized particle solution was prepared and stored at 4° C. until use, in the same manner as in Example 28 except that: MS300C was used as magnetic particles; and blocking treatment was performed at 4° C. or room temperature through use of Blockmaster CE210 or CE510 (manufactured by Medical & Biological Laboratories Co., Ltd.) instead of Bead Blocking Buffer (manufactured by Quanterix Corporation).
For detection of MMP14 activity, 1 mM Custom #2 and 1 mM Custom #2T were diluted with the buffer (4) to prepare a MMP14 detection solution containing 5 μM Custom #2 and 2.5 μM Custom #2T serving as the reporter molecules in the same system. […]

[2] = molecular target: T2, MMP14 in the A549-derived extracellular vesicles (Homo sapiens, UniProt P50281); test: Evaluation of MMP14 activity of A549-derived extracellular vesicles with 96-well plate; conditions: reporter 5 μM, 37° C.
T2 construct: host or cells: A549 (purified exosomes)
Experimental: The MMP14 activity was evaluated with a 96-well plate (manufactured by Thermo Fisher Scientific Inc., model number: 137101). A fluorescence intensity was measured with a fluorescence plate reader (Synergy MX, manufactured by BioTek Instruments, Inc.) at […] every 5 min for 1 hour. For measurement wavelengths, an excitation wavelength of 485±20 nm and a fluorescence wavelength of 528±20 nm were used.
With regard to the COLO201-derived extracellular vesicles, the concentration of the solution was set to x1/10, and 3-fold serial dilution was performed to prepare standard samples with three concentrations.
50 μL of the MMP14 detection solution was added to 50 μL of each of the samples, a reaction was performed at 37° C., and MMP14 activity was evaluated.
(§2) The concentration of the solution is 20 μg/mL. […] The concentration of the solution was set to x1, and 10-fold serial dilution was performed to prepare standard samples with five concentrations.
as §1
Evaluation was performed in the same manner as in Example 1 except that the reaction temperature was set to 23° C. ΔRFU was calculated by subtracting the measured value of the sample for BG measurement from the measured value of each of the samples.

[3] = molecular target: T1, MMP14 in the MDA-MB-231-derived extracellular vesicles; test: Digital detection through MMP14 activity of MDA-MB-231-derived extracellular vesicles captured on Tim4-immobilized magnetic particles; conditions: Table 56, MB231 Present, 24 hours at 23° C.
[4] = molecular target: T2, MMP14 in the A549-derived extracellular vesicles; test: Digital detection of A549-derived extracellular vesicles through MMP14 activity in wells (Simoa Discs)
Experimental: as §2, §1

[5] = Example 28, 37° C., EV 0 (BG, free of extracellular vesicles)
[6] = Example 28, 37° C., EV 1 a.u. (sample 10 μg/mL)
[7] = Example 31, 4-fold number of particles, 37° C., EV 1 a.u., single image
[8] = Example 31, 37° C., EV 1 a.u., sum of the two images
[9] = Particle MS300C, MB231 Absent, 24 hours of reaction
[10] = Particle MS300C, MB231 Present, 24 hours of reaction
[11] = Particle Simoa, MB231 Absent, 24 hours of reaction
[12] = Particle Simoa, MB231 Present, 24 hours of reaction
[13] = Example 27, 23° C., 5 h, EV 0 (free of extracellular vesicles)
[14] = Example 27, 23° C., 5 h, EV 0.01 a.u.
[15] = Example 27, 23° C., 5 h, EV 0.1 a.u.
[16] = Example 27, reporter 10 μM, 23° C., 5 h, EV 1 a.u. (x1=5 μg/mL)
[17] = Example 21, 37° C., 5 h, BG, EV 0 (free of extracellular vesicles, pseudopositive)
[18] = Example 21, 37° C., 5 h, ΔBG Absent, EV 0.0001 a.u.
[19] = Example 21, 37° C., 5 h, ΔBG Absent, EV 0.001 a.u.
[20] = Example 21, 37° C., 5 h, ΔBG Absent, EV 0.01 a.u.
[21] = Example 21, 37° C., 5 h, ΔBG Absent, EV 0.1 a.u.
[22] = Example 21, 37° C., 5 h, ΔBG Absent, EV 1 a.u. (x1=10 μg/mL)
[23] = Example 21, 37° C., 5 h, ΔBG Present (positives at EV 0 subtracted), EV 1 a.u.
[24] = Example 21, 37° C., 5 h, ΔBG Present, EV 0.0001 a.u.
[25] = Example 21, 37° C., 5 h, ΔBG Present, EV 0.001 a.u.
[26] = Example 21, 37° C., 5 h, ΔBG Present, EV 0.01 a.u.
[27] = Example 21, 37° C., 5 h, ΔBG Present, EV 0.1 a.u.

[5-FAM]GGPLGLAGGK(TQ2)[OH] (5FAM-GGPLGLAGGK(TQ2)-OH) [Custom #2]
Extracellular vesicle concentration ([1]; Example 28, 1 μg of protein, 5.0×10^5 particles): 8.0×10^4 extracellular vesicles/μg of protein | Expected value λ [1, 5]: 0.000493 | Number of positives [1, 5]: 1 | Positive ratio [1, 5]: 0.000493 | Expected value λ [1, 6]: 0.1599 | Number of positives [1, 6]: 338 | Positive ratio [1, 6]: 0.1478 | expected value Δλ per particle (value obtained by subtracting BG) ([1]; Example 28, 5 h): 0.1594 | Extracellular vesicle concentration ([1]; Example 31, 0.5 μg of protein, 2.0×10^6 particles): 1.8×10^5 extracellular vesicles/μg of protein | Expected value λ [1, 7]: 0.04458 and 0.04511 | Number of positives [1, 7]: 402 and 410 | Positive ratio [1, 7]: 0.0436 and 0.04411 | Expected value λ [1, 8]: 0.04484 | Number of positives [1, 8]: 812 | Positive ratio [1, 8]: 0.04386 | expected value Δλ per particle (value obtained by subtracting BG) ([1]; Example 31, 5 h, sum of the two images): 0.04435 | Expected value λ (MMP14) ([1]; EV 0 (BG)): 0.00428 | Number of positives (MMP14) ([1]; EV 0 (BG)): 9 | Expected value λ (MMP14) ([1]; EV X1 (sample 10 μg/mL)): 0.139 | Number of positives (MMP14) ([1]; EV X1 (sample 10 μg/mL)): 298 | Expected value λ (MMP14) ([1]; EV X1/3): 0.0829 | Number of positives (MMP14) ([1]; EV X1/3): 218 | Expected value λ (MMP14) ([1]; EV X1/9): 0.0569 | Number of positives (MMP14) ([1]; EV X1/9): 162 | Expected value λ (MMP14) ([1]; EV X1/27): 0.0315 | Number of positives (MMP14) ([1]; EV X1/27): 78 | Expected value λ (MMP14) ([1]; EV X1/81): 0.0118 | Number of positives (MMP14) ([1]; EV X1/81): 19 | Expected value λ (MMP14) ([1]; EV X1/243): 0.0108 | Number of positives (MMP14) ([1]; EV X1/243): 20 | Expected value λ (MMP14) ([1]; EV X1/729): 0.0120 | Number of positives (MMP14) ([1]; EV X1/729): 22 | extracellular vesicles detected with MMP14 present in wells (particles) containing extracellular vesicles detected with at least any one of CD9, CD63, and CD81 ([1]; Example 33, concentration [a.u.] of x1, multiplex with resorufin β-D-galactopyranoside): 99.7% | Extracellular vesicle concentration [1, 9]: 0.0113 ×10^5/μg of protein | Particle Expected value λ [1, 9]: 0.00226 | Extracellular vesicle concentration [1, 10]: 1.4495 ×10^5/μg of protein | Particle Expected value λ [1, 10]: 0.2899 | Extracellular vesicle concentration [1, 11]: 0.0061 ×10^5/μg of protein | Particle Expected value λ [1, 11]: 0.00122 | Extracellular vesicle concentration [1, 12]: 1.5232 ×10^5/μg of protein | Particle Expected value λ [1, 12]: 0.3046 | fluorescence intensity at the same extracellular vesicle concentration ([2]; Example 10, buffer (3)): higher than the fluorescence intensity from Custom #1 | Particle Number of positives ([3]; Particle MS300C): 1,288 | Particle Number of positives ([3]; Particle Simoa): 1,234 | Extracellular vesicle concentration ([4]; Example 27): 1.1×10^9 /μg of protein | Expected value λ [4, 13]: 0.000023 | Number of positives [4, 13]: 2 | Positive ratio [4, 13]: 0.000023 | Expected value λ [4, 14]: 0.004117 | Number of positives [4, 14]: 357 | Positive ratio [4, 14]: 0.004109 | Expected value λ [4, 15]: 0.03235 | Number of positives [4, 15]: 2,766 | Positive ratio [4, 15]: 0.03184 | λ at x1 in the approximation of FIG. 58 ([4]; Example 27, 5 h): 0.2767 | concentration of the extracellular vesicles that can be detected based on the MMP14 activity ([4]; Example 27, reaction solution 5 μg of protein/mL, 50 fL): 5.5e+09 mL⁻¹ | Expected value λ [4, 16]: 0.2767 | Number of positives [4, 16]: 20,982 | Positive ratio [4, 16]: 0.2417

[5-FAM]GRIGFLRTAK(TQ2)[OH] (5FAM-GRIGFLRTAK(TQ2)-OH) [Custom #1]
extracellular vesicle concentration at which MMP14 activity was able to be detected with a 96-well plate ([2]; Example 21, buffer (4)): ≥ 10 µg/mL | Expected value λ [4, 17]: 0.000656 | Number of positives [4, 17]: 38 | Positive ratio [4, 17]: 0.000656 | Expected value λ [4, 18]: 0.000725 | Number of positives [4, 18]: 42 | Positive ratio [4, 18]: 0.000724 | Expected value λ [4, 19]: 0.000985 | Number of positives [4, 19]: 57 | Positive ratio [4, 19]: 0.000984 | Expected value λ [4, 20]: 0.00207 | Number of positives [4, 20]: 119 | Positive ratio [4, 20]: 0.00206 | Expected value λ [4, 21]: 0.0137 | Number of positives [4, 21]: 789 | Positive ratio [4, 21]: 0.0136 | Expected value λ [4, 22]: 0.149 | Number of positives [4, 22]: 8,036 | Positive ratio [4, 22]: 0.139 | Expected value λ [4, 23]: 0.148 | Number of positives [4, 23]: 7,998 | Positive ratio [4, 23]: 0.138 | Expected value λ [4, 24]: 0.000069 | Number of positives [4, 24]: 4 | Positive ratio [4, 24]: 0.000069 | Expected value λ [4, 25]: 0.000328 | Number of positives [4, 25]: 19 | Positive ratio [4, 25]: 0.000328 | Expected value λ [4, 26]: 0.00141 | Number of positives [4, 26]: 81 | Positive ratio [4, 26]: 0.0014 | Expected value λ [4, 27]: 0.013 | Number of positives [4, 27]: 751 | Positive ratio [4, 27]: 0.0129 | λ at x1 in an approximation with BG correction ([4]; Example 21, 5 h): 0.120 | λ at x1 in an approximation without BG correction ([4]; Example 21, 5 h): 0.102 | extracellular vesicle concentration at which MMP14 activity was able to be detected in the microcompartment ([4]; Example 21, Simoa Discs, buffer (4), reporter 5 μM, 37° C., 5 h): ≥ 100 ng/mL | Extracellular vesicle concentration ([4]; Example 21, with BG correction): 2.4e+09 mL⁻¹ | extracellular vesicles in which MMP14 activity can be detected, contained in 1 μL of the extracellular vesicles (50 μg of protein in 50 μL of PBS) ([4]; Example 21, with BG correction): 2.4×10^8 | Extracellular vesicle concentration ([4]; Example 21, without BG correction): 2.0×10^8 /μg of protein | Extracellular vesicle concentration ([4]; Example 21, without BG correction, reaction solution 10 μg of protein/mL, 50 fL): 2e+09 mL⁻¹
